Data taken from publication PMC6778137, “The midbody interactome reveals unexpected roles for PP1 phosphatases in cytokinesis” (Nature Communications, 2019).

Biological target: T1, MBP::PP1β (UniProt P62140 1-327)
T1 construct: PP1β; Expressed from a derivative of plasmid pMH919 carrying MBP instead of 6His; also called MBP-tagged PP1β; source: S. cerevisiae (strain MGY960), purified on amylose resin, eluted with 20 mM maltose
Experiment: pull-down; GST pull-down: GST::MKLP1_(620–858) proteins on Glutathione Sepharose beads mixed with MBP::PP1β purified from yeast; NET-N+ buffer (50 mM Tris-HCl pH 7.4, 150 mM NaCl, 5 mM EDTA, 0.2% NP-40), 60 min at 4 °C, washes with 250 mM NaCl; western blot
Details: both partners purified

T1 sequence (P62140 whole entry): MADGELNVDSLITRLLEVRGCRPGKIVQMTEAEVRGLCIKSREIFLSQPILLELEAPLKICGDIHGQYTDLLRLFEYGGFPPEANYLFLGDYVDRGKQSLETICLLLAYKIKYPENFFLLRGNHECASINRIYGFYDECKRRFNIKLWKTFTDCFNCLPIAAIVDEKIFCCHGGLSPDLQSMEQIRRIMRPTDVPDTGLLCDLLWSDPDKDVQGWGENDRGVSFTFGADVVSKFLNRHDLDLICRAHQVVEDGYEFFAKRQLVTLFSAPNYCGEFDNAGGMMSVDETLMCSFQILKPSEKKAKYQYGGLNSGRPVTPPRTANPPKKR

Row | binding result | Binder
1 | binds | GST::MKLP1_(620–858) (wild type) (domain or fragment, UniProt Q02241-2 620-856, looked up, Cloned into pDEST15; source: E. coli, purified (Glutathione Sepharose 4B), kept on beads; not shown: GST, N-terminal, kept) ETTMKWEKECERRVAAKQLEMQNKLWVKDEKLKQLKAIVTEPKTEKPERPSRERDREKVTQRSVSPSPVPLLFQPDQNAPPIRLRHRRSRSAGDRWVDHKPASNMQTETVMQPHVPHAITVSVANEKALAKCEKYMLTHQELASDGEIETKLIKGDIYKTRGGGQSVQFTDIETLKQESPNGSRKRRSSTVAPAQPDGAESEWTDVETRCSVAVEMRAGSQLGPGYQHHAQPKRKKP
2 | binds | GST::MKLP1_(620–858) AQA mutant (domain or fragment, UniProt Q02241-2 620-856, looked up, Cloned into pDEST15; also called AQA MKLP1; source: E. coli, purified (Glutathione Sepharose 4B), kept on beads; not shown: GST, N-terminal, kept) ETTMKWEKECERRVAAKQLEMQNKLWVKDEKLKQLKAIVTEPKTEKPERPSRERDREKVTQRSVSPSPVPLLFQPDQNAPPIRLRHRRSRSAGDRWVDHKPASNMQTETVMQPHVPHAITVSVANEKALAKCEKYMLTHQELASDGEIETKLIKGDIYKTRGGGQSAQATDIETLKQESPNGSRKRRSSTVAPAQPDGAESEWTDVETRCSVAVEMRAGSQLGPGYQHHAQPKRKKP
